Laboratory results: doi:10.1101/2020.07.27.223248 (bioRxiv, 2020)

Target: the molecule itself
Test: cryo-EM structure

B1: FljK T103C N130S, straightened flagellar filament (natural protein, C. crescentus, UniProt P18913 1-273, looked up)
chain: MALNSINTNAGAMIALQNLNGTNSELTTVQQRINTGKKIASAKDNGAIWATAKNQSATAASMNAVKDSLQRGQSTIDVALAAGDTITDLLGKMKEKALAASDCSLNTASFNALKSDFDSLRDQIEKAATSAKFNGVSIADGSTTKLTFLANSDGSGFTVNAKTISLAGIGLTTTSTFTTAAAAKTMIGTIDTALQTATNKLASLGTSSVGLDTHLTFVGKLQDSLDAGVGNLVDADLAKESAKLQSLQTKQQLGVQALSIANQSSSSILSLFR
modifications: post-translational modifications on conserved surface threonine residues, likely O-linked glycans (positions not given)
Question: Does B1 bind?
Answer: Result: binds
